# Literature values, collected in PMC6325607.
# Test system: Cys149
substance,measurement,value
Cytosolic glyceraldehyde-3-phosphate dehydrogenase (GAPDH) (Arabidopsis thaliana),pKa,5.65
